Results from patent US20150175707.

Assay: HP-SEC as in Example 20; Fc:Fc self-oligomerization

| Substance | fraction oligomer (HP-SEC) | % multimeric (HP-SEC) |
| --- | --- | --- |
| IgG1-2F8-RGY (EGFR antibody 2F8 with E345R/E430G/S440Y) | IgG1-2F8-RGY (74.5%) | – |
| IgG1-7D8-RGY (CD20 antibody 7D8 with E345R/E430G/S440Y) | IgG1-7D8-RGY (67.2%) | – |
| IgG2-005-RGY (IgG2-005-E345R/E430G/S440Y) | – | IgG2-005-RGY (46.1% multimeric) |
| IgG3-005-RGY | – | IgG3-005-RGY (37.8% multimeric) |
| IgG4-005-RGY | – | IgG4-005-RGY (84.4% multimeric) |
